From the supplement of paper PMC7125110
± gives the standard error. This sample holds only a part of the variants without activity.

B1: glmS ribozyme (parent)
chain: AUAAAAGCGCCAGAACUACAGAAAUGUAGUUGACGAGGAGGAGGUUUAUCGAAUUUUCGGCGGAUGCCUCCAAA

Assays:
Conditions in all cases: with glucosamine-6-phosphate
glucosamine-6-phosphate [1] = variants of: B1; experiment: self-cleavage kobs at 40 uM GlcN6P; higher = faster cleavage; RNA array
Outline: (§1)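 Ribozyme variants carrying barcodes were transcribed in situ on sequenced MiSeq chips by E. coli RNA polymerase and tracked at 37 °C with a hybridised Cy3 probe. They were exposed to 40 μM to 10 mM glucosamine-6-phosphate in HEPES/KCl/Mg(OAc)2 buffer. kobs came from exponential decay fits of normalised per-tile medians, and kcat and KM from weighted Michaelis–Menten fits.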

glucosamine-6-phosphate [2] = variants of: B1; experiment: self-cleavage kobs at 160 uM GlcN6P; higher = faster cleavage; RNA array
Outline: as §1

glucosamine-6-phosphate [3] = variants of: B1; experiment: self-cleavage kobs at 640 uM GlcN6P; higher = faster cleavage; RNA array
Outline: as §1

glucosamine-6-phosphate [4] = variants of: B1; experiment: self-cleavage kobs at 2500 uM GlcN6P; higher = faster cleavage; RNA array
Outline: as §1

glucosamine-6-phosphate [5] = variants of: B1; experiment: self-cleavage kobs at 10000 uM GlcN6P; higher = faster cleavage; RNA array
Outline: as §1

Variant	self-cleavage kobs at 40 uM GlcN6P (glucosamine-6-phosphate [1]) [s⁻¹]	self-cleavage kobs at 160 uM GlcN6P (glucosamine-6-phosphate [2]) [s⁻¹]	self-cleavage kobs at 640 uM GlcN6P (glucosamine-6-phosphate [3]) [s⁻¹]	self-cleavage kobs at 2500 uM GlcN6P (glucosamine-6-phosphate [4]) [s⁻¹]	self-cleavage kobs at 10000 uM GlcN6P (glucosamine-6-phosphate [5]) [s⁻¹]
A6G A14U U55G C68G	< 1e-05	–	–	–	–
A6G G62U	< 1e-05	< 1e-05	< 1e-05	< 1e-05	< 1e-05
A6G C67A C68U	< 1e-05	–	–	–	–
A6G U49G	< 1e-05	–	–	< 1e-05	–
A6G U31A U46G C68G	< 1e-05	–	–	–	< 1e-05
A6G A33U	< 1e-05	< 1e-05	< 1e-05	< 1e-05	–
A6G A33C	< 1e-05	< 1e-05	< 1e-05	< 1e-05	< 1e-05
A6G A12U C61U	< 1e-05	–	–	–	< 1e-05
A6C G60U	< 1e-05	< 1e-05	< 1e-05	< 1e-05	< 1e-05
A6G A12C C71A	< 1e-05	–	–	–	–
A6G U30C	< 1e-05	< 1e-05	–	–	–
A6U A14U G35C A39U U55A C58A	< 1e-05	–	–	< 1e-05	< 1e-05
A6G C16G G29C A39G G43C U47G G51U C61A	< 1e-05	–	–	–	< 1e-05
A6G A52U C61G	< 1e-05	–	–	–	–
A6G A12C U45G C58U G59C G62A C68G	< 1e-05	–	–	–	< 1e-05
A6G A15U G59A	< 1e-05	–	–	< 1e-05	< 1e-05
A6G A12G U31A U54A C71A	< 1e-05	< 1e-05	< 1e-05	< 1e-05	–
A6C U46A U49A	< 1e-05	< 1e-05	< 1e-05	< 1e-05	–
A6C U56C	< 1e-05	< 1e-05	–	–	–
A6C G35U A36C	< 1e-05	–	–	< 1e-05	< 1e-05
A6G C10G G13U C16G U54G U57G	< 1e-05	–	–	–	< 1e-05
A6C G62C	< 1e-05	< 1e-05	< 1e-05	< 1e-05	< 1e-05
A6G G32U G37C A64U C68G C70G	< 1e-05	–	–	–	–
A6C G13C G29U C70G	< 1e-05	–	–	–	–

Variant	self-cleavage kobs at 40 uM GlcN6P (glucosamine-6-phosphate [1]) [s⁻¹]	self-cleavage kobs at 160 uM GlcN6P (glucosamine-6-phosphate [2]) [s⁻¹]	self-cleavage kobs at 640 uM GlcN6P (glucosamine-6-phosphate [3]) [s⁻¹]	self-cleavage kobs at 2500 uM GlcN6P (glucosamine-6-phosphate [4]) [s⁻¹]	self-cleavage kobs at 10000 uM GlcN6P (glucosamine-6-phosphate [5]) [s⁻¹]
A6G A14G A39C	< 1e-05	–	–	9.9e-05 ± 2.3e-05	0.000209 ± 4.5e-05
A6G G32U U46G	< 1e-05	–	–	–	< 1e-05
A6G G35U	< 1e-05	< 1e-05	< 1e-05	< 1e-05	< 1e-05
A6G G35A	< 1e-05	< 1e-05	< 1e-05	< 1e-05	< 1e-05
A6G U31C G41U A52U	< 1e-05	–	–	–	< 1e-05
A6G G35U A52C C70G	< 1e-05	–	–	–	–
A6U A15U A36G A52C	< 1e-05	–	–	< 1e-05	–
A6U A33C	< 1e-05	< 1e-05	< 1e-05	< 1e-05	–
A6G A15C A64C	< 1e-05	–	–	< 1e-05	–
A6G A36C G51U	< 1e-05	–	–	–	< 1e-05
A6G C10A G29U	< 1e-05	–	–	–	–
A6G G35A A39C G62C U65G C67A	< 1e-05	–	–	–	–
A6G G51U U57C	< 1e-05	–	–	–	< 1e-05
A6G C8G A39C U55C C70A	< 1e-05	–	–	–	< 1e-05
A6G A52G A53G C67G	6.36e-05 ± 3.1e-05	–	0.00028 ± 0.00011	–	–
A6G C10U G43C	< 1e-05	–	< 1e-05	–	–
A6U A33G G41A A64U	< 1e-05	< 1e-05	< 1e-05	< 1e-05	–
A6G G60C	< 1e-05	< 1e-05	< 1e-05	< 1e-05	–
A6G G51A	< 1e-05	< 1e-05	< 1e-05	< 1e-05	< 1e-05
A6C G37C A39G G40U G41U	< 1e-05	< 1e-05	< 1e-05	< 1e-05	–
A6G C50U C58U U65G	< 1e-05	–	< 1e-05	–	< 1e-05
A6U A48G G51C G59C	< 1e-05	–	–	–	< 1e-05
A6C G29U C34U U47G C58G C70G	0.000135 ± 5e-05	–	0.000686 ± 0.0002	–	0.000144 ± 3.9e-05
A6G C10A G13A G62A U65A	< 1e-05	–	–	–	< 1e-05

Variant	self-cleavage kobs at 40 uM GlcN6P (glucosamine-6-phosphate [1]) [s⁻¹]	self-cleavage kobs at 160 uM GlcN6P (glucosamine-6-phosphate [2]) [s⁻¹]	self-cleavage kobs at 640 uM GlcN6P (glucosamine-6-phosphate [3]) [s⁻¹]	self-cleavage kobs at 2500 uM GlcN6P (glucosamine-6-phosphate [4]) [s⁻¹]	self-cleavage kobs at 10000 uM GlcN6P (glucosamine-6-phosphate [5]) [s⁻¹]
A6C G29C A36G	< 1e-05	< 1e-05	–	< 1e-05	< 1e-05
A6C U45C G63A	< 1e-05	–	–	< 1e-05	–
A6G A39G C68A C70G	< 1e-05	–	–	–	–
A6C G9A	< 1e-05	–	–	–	< 1e-05
A6C U31A	< 1e-05	–	< 1e-05	–	3.99e-05 ± 1.3e-05
A6G A12G G66A	< 1e-05	–	< 1e-05	–	–
A6G A52U	< 1e-05	< 1e-05	< 1e-05	–	–
A6G C11G A42U	< 1e-05	–	–	< 1e-05	< 1e-05
A6G G32C	< 1e-05	< 1e-05	< 1e-05	–	< 1e-05
A6G C50G A53G C58U	0.000224 ± 9.8e-05	–	–	–	–
A6C G63A	< 1e-05	< 1e-05	< 1e-05	–	–
A6G U65C	< 1e-05	< 1e-05	< 1e-05	< 1e-05	< 1e-05
A6C U49C	< 1e-05	< 1e-05	–	–	< 1e-05
A6G G44U G62U G63A U69A	< 1e-05	< 1e-05	< 1e-05	< 1e-05	< 1e-05
A6U A36G	< 1e-05	< 1e-05	< 1e-05	–	< 1e-05
A6U A12U G32U G60U	< 1e-05	–	–	–	–
A6G A36C G41U	< 1e-05	–	< 1e-05	–	< 1e-05
A6U A12G C16U G38A U54A C68A	8.86e-05 ± 3.6e-05	–	0.000335 ± 0.0001	0.000395 ± 0.00011	8.53e-05 ± 1.8e-05
A6C G35A	< 1e-05	< 1e-05	< 1e-05	< 1e-05	< 1e-05
A6C G7C C11G U55G	< 1e-05	–	–	–	< 1e-05
A6G C50G A64U	7.9e-05 ± 3.2e-05	–	–	–	0.000157 ± 2.5e-05
A6U A33U A36G G38C U46G C61U	< 1e-05	–	–	–	–
A6C U49G C67U	< 1e-05	–	–	< 1e-05	–
A6G C58A	< 1e-05	< 1e-05	< 1e-05	< 1e-05	–

Variant	self-cleavage kobs at 40 uM GlcN6P (glucosamine-6-phosphate [1]) [s⁻¹]	self-cleavage kobs at 160 uM GlcN6P (glucosamine-6-phosphate [2]) [s⁻¹]	self-cleavage kobs at 640 uM GlcN6P (glucosamine-6-phosphate [3]) [s⁻¹]	self-cleavage kobs at 2500 uM GlcN6P (glucosamine-6-phosphate [4]) [s⁻¹]	self-cleavage kobs at 10000 uM GlcN6P (glucosamine-6-phosphate [5]) [s⁻¹]
A6G A15G C71U	< 1e-05	–	–	–	–
A6G A15C A53G	< 1e-05	–	–	6.25e-05 ± 2e-05	–
A6G G32U C34U	< 1e-05	–	< 1e-05	< 1e-05	< 1e-05
A6G G35U A42G U46G G66U	< 1e-05	–	–	–	–
A6G A42C C71U	< 1e-05	–	< 1e-05	–	–
A6G G7U	< 1e-05	< 1e-05	–	< 1e-05	< 1e-05
A6C U47C U54A G59A C70U	< 1e-05	–	–	–	–
A6G G38A C50G C71A	9.73e-05 ± 2.8e-05	–	–	–	–
A6G G35A C67U U69A	< 1e-05	< 1e-05	< 1e-05	< 1e-05	< 1e-05
A6G C71G	< 1e-05	< 1e-05	< 1e-05	< 1e-05	–
A6G A12G A64U C70U	< 1e-05	–	–	–	< 1e-05
A6C G37U G44U	< 1e-05	–	–	–	–
A6G G43A	< 1e-05	< 1e-05	< 1e-05	< 1e-05	< 1e-05
A6C G43C G63A C71A	< 1e-05	–	–	–	< 1e-05
A6U A33U A64G	< 1e-05	–	–	< 1e-05	–
A6C G13C A52G	< 1e-05	–	–	–	< 1e-05
A6C G32C	< 1e-05	< 1e-05	–	< 1e-05	< 1e-05
A6G U45A G60C	< 1e-05	–	–	–	< 1e-05
A6U A52C	< 1e-05	< 1e-05	< 1e-05	< 1e-05	< 1e-05
A6U A48U C70U	< 1e-05	–	–	–	–
A6G G40U A52G U65G	< 1e-05	–	–	–	< 1e-05
A6C G43U	< 1e-05	< 1e-05	< 1e-05	< 1e-05	< 1e-05
A6C G43C	< 1e-05	< 1e-05	< 1e-05	–	< 1e-05
